From the nanobody polyreactivity screen of Harvey et al. (2022)

Assay: yeast display, Sf9 membrane polyspecificity reagent, FACS + sequencing; frameworks hold sequencing errors
Method in brief: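 A synthetic nanobody library was expressed on Saccharomyces cerevisiae BJ5465 by galactose induction for 36–48 hours. The library was stained for 1 hour at 4 °C with 10% biotinylated, detergent-solubilized Sf9 membrane reagent and enriched with streptavidin microbeads before FACS. Low and high (top ~1%) gates were set on anti-HA fluorescence for expression and streptavidin fluorescence for reagent binding, and each polyreactivity label reflects the gate of origin.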

Sequence | polyreactivity (PSR sort gate)
QVQLVESGGGLVQAGGTLRLSCAASGRTFTIYAMGWYRQAPGKEREWVAAITSGGSSYYADSVKGRFTISRDNATKTDYLQMNSLKPEDTAVEYCARGYAVSLVSRYYYWGQGTQVTVSS | low polyreactivity
QVQLVESGGGLVQAGGTLRLSCAASGRTFYGNAMGWYRQAPGKERELVAVITRRGDTTYYADSVKGRFTISRDNAKNTVYLQMNSLKPEDTAVYYCAASYTGGYTPRQKYNRMGYWGQGTQVSVSS | high polyreactivity
QVQLVESGGGLVQAGGTLRLSCAASGSIFRLNAMGWYRQPPGKERELVAAITSGGRTNYADSVKGRFTISRDNAKNTDYLQMNSLKPEDTAVYYCNARATAYGWRGDAGFEFDYWGQGTQVTVSS | low polyreactivity
QVQLVESGGGLVQAGGTLRLSCAASGSIFRYYAMGWYRQAPGKERELVATITSTGGSTYYADSVKGRFTISRDNAKNTVYLQMNSLKPEDTAVYYCAARNKWYVTVRGYYLSGFWGQGTQVTVSS | high polyreactivity
QVQLVESGGGLVQAGGTLRLSCAASGSIFYPNAMGWYRQAPGKERELVAASSWTGGSTRYADSVKGRFTISRDIAKNTVYLQMNSLKPEDTAVYYCAALYVYRPRTPYGYSGQGTQVTVSS | high polyreactivity
QVQLVESGGGLVQAGGTLRLSCAASGSIQYRYAMGWYRQAHGKERELVAAISARGGNTYYADSVKGRFTISRDNAKNTVYVQMNSLKPEDTAVYYCAATYRGYRLHVAYDYWGQGTQVTVSS | high polyreactivity
QVQLVESGGGLVQAGGTLRLSCAASGSTFDVYAMGWYRQSPVKESELVADINYGDASTYYADSVKGRFTISRDNAKNTVYLQMISLNPEDTSVYYCAAFVYVLNYLSDGGSVYREHDYWGQGTKVTVSS | low polyreactivity
QVQLVESGGGLVQAGGTLRLSCAASGSTFGRYAMGWYRQAPGKERELVAAITSDTGNTNYADSVKGRFTISRDNAKNTVYLQMNSLKPEDTAVYYCAARLYARRVYDYWGQGTQVTVSS | low polyreactivity
QVQLVESGGGLVQAGGTLRLSCAASGSTFKSNAMGWYRQEPGKERELVAAINRSGAGTYYADSVKGRFTISRDNAKNTVYLQMNSLKPEDTAVYYCAAQSYSRRYDYWGQGTQVTVSS | high polyreactivity
QVQLVESGGGLVQAGGTLRLSCAASGSTFPRNTMGWYRHEPGKERELVAAISSSGVRTYYADSVKGRFTISRDNAKNTVYLQMNSLKAEDTAVYYCAAGSQSRDYYYWGQGTLVTVSS | high polyreactivity
QVQLVESGGGLVQAGGTLRLSCAASGSTYDTYTMGGYSQAPGKERVLVAAITSSGDSTYYADSVKGRSTISRDNAKNTVYLQMNSLKPEDTAVYYCAAEVTVWLYYLYVGEYEYWGQGTQVTVSS | high polyreactivity
QVQLVESGGGLVQAGGTLRLSCAASGYIFFPYAMGWYRQAPGKERELVAAISGSGTSTYYADSVKGRFTISRDNAKNTVYLQMNSLKPEDTAVYYCAAKYGQYDYDYWGQGTQVTVSS | low polyreactivity
QVQLVESGGGLVQAGGTLRLSCAASGYTFYFYAMGWYRQAPGKEREFVAAIRSSGGRTYYADSVKGRFTISRDNAKNTVYLQMNCLKPEDTAVYSCAAAGYYYSVDGAGPRYDYWGQGTQVTGSS | low polyreactivity
QVQLVESGGGLVQAGGTLRLSCAATGRIFARYAMGWYRQAPGKERELVAAITVSGDNTYYADSVKGRFTISRYNAKNTVYLQMNSLKPEDTAVYYCAVRAVLLFGFFEYDYWGQGTQVTVSS | low polyreactivity
QVQLVESGGGLVQAGGTLRLSCAPSGSIFRVYTMGWYRQAPGKERELVATISRSGVSTNYADSVKGRFTISRDNAKNTVYLQMNSLKPEDTAVYYCNAYYRTKGGFRFGYWGQGTQVTVSS | high polyreactivity
QVQLVESGGGLVQAGGTLRLSCDASGLIFEYYAMGWYRQAPGKERELVAVINWSGASTYYADSVKGRFTISRDNAKNTVFLQMNSLKPEDTAVYYCAAGVLITGLRFDYWGQGSQVTVSS | low polyreactivity

Sequence | polyreactivity (PSR sort gate)
QVQLVESGGGLVQAGGTLRLSCSASGRTFPGYAMGWYRQAPGKERELVAVISLSGGRTNYADSVKGRFTISRDNAKNTVFLLMNSLKPEDTAVYYCAGRYHGHSNDYWGQGTQVTVSS | low polyreactivity
QVQLVESGGGLVQAGGTLRLSCSASGRTFQVYAMGWYRQAPGKERELVAGITRAGSTYYADSVKGRFTISRDNAKNTVYLQMNSLKPEDTAVYYCAASRWHGYNYWGQGTQVTVSS | high polyreactivity
QVQLVESGGGLVQAGGTLRLTCAASGRTFYRYVMGWYRHAPVKERELFAAINWSGGSTYYADSVKGRFTISRDNAKNTVYLQMNSLKPEDTAVYYCAADLYTLRYGYRYEYWGQGTQVTVSS | high polyreactivity
QVQLVESGGGLVQAGRRLRLSCAASGRIFSRNAMGWYRQAPGKERELVAVITKRGGSTYYADSVKGRFTISRDNAKNTVYLQMNSLKPEDSAVYYCNRRPYTGLGRLDYWGQGTQVTVSS | high polyreactivity
QVQLVESGGGLVQAGRSIRLTCAASGITFSEYAMGWYRQAPGKEREFVAAISRRGGSTYYADYVKGRFTISSDNAKNTVYLQMNSLKAEDTAVYYCNRRYVTFRFEQDYDYWGQGNQVTVSS | low polyreactivity
QVQLVESGGGLVQAGRSLCLSCAASGSIFINAMGWYRQAPGKERELVATIRWRGGTTYYADSVKGRFTISRDNAKNTVDLQMNSLKPEATAVYYCAADRSYYPDTRTTYGYNYWGQGTQVTVSS | low polyreactivity
QVQLVESGGGLVQAGRSLRLICAASGRTFTLNAMRWYRQAPGKERELVDAITWGAGSTYYADSVKGRFTISRDNAKNTVYLQMNSLKPEDTAVYYCAARFHGDYYRYRSPSMYYWGQGSQVTVSS | high polyreactivity
QVQLVESGGGLVQAGRSLRLNCAASGSIIKYNAMGWYRPAPGKERELVASISSSGGTTYYADSVKGRFTISRDNAKNTVYLQMNRLTPEDTAVYYCTKYVRAGNGYGEEDYWGQGTQVTVSS | high polyreactivity
QVQLVESGGGLVQAGRSLRLSCAASGFIFKSYAMGWYRQAPAKERELVAAISFSGGSTYYADSVKGLFTISRDNAKNTVYLQMNSLKPEDSAVYYCAADPRNGEYYYWGQGTQVTVSS | high polyreactivity
QVQLVESGGGLVQAGRSLRLSCAASGFTFRWYGMGWYRQAPGKERELVAAISWSGGTTYYADSVKGRFTISRDNAKKTVYLQMNSLKAEDTAVYYCAASFQTFASRYDYWGQGTQVTVSS | high polyreactivity
QVQLVESGGGLVQAGRSLRLSCAASGIIFAFYAMGWYRQAPGKERELVAAISIDGSTYYADSVKGRFTISRDNAKNTVYLQMNSLKPEDTAVYYCAAQYLNVYYWEDYWGQGTQVTVSS | low polyreactivity
QVQLVESGGGLVQAGRSLRLSCAASGRIFRFKTMGWYRQSPGKERELVAAITYSGGGTYYADSVKGRFTISRDNAKNTVYLQMNSLKPEDTAVYYCAATLYLRTIDDYWGQGTQVTVSS | high polyreactivity
QVQLVESGGGLVQAGRSLRLSCAASGRIFSDYAMGWYRQAPGKERELVATITSGDSTNYADSVKGRFTISRDNAKNTVYLQMNSLNPEDTAVYYCNADRFADYDYWGQGTQVTVST | low polyreactivity
QVQLVESGGGLVQAGRSLRLSCAASGRTFLVYAMGWYRQAPGKERELVAVINSGTSTNYADSVKGRFTISRDNAKNTVYLQMNSQKPEDTAVYYCATAYRRRDRHYYWGQGTQVTVSS | low polyreactivity
QVQLVESGGGLVQAGRSLRLSCAASGRTYSVYAMGWYRKAPGKETELLAGITSGGSTNYADSVKGRFTISRDNAKNTVYLQMNSLNPEDTAVYYCAAENVYAGFGFVSIGDYWGQGTQVTVST | low polyreactivity
